Test: yeast display, Sf9 membrane polyspecificity reagent, FACS + sequencing; frameworks hold sequencing errors
Summary of the method: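 Synthetic nanobody libraries on Saccharomyces cerevisiae BJ5465 were galactose-induced for 36–48 hours, stained 1 hour at 4 °C with 10% biotinylated, detergent-solubilized Sf9 membrane reagent and enriched on streptavidin microbeads. FACS then separated cells into low and high (top ~1%) gates by anti-HA (expression) and streptavidin (reagent binding) fluorescence. Genes were colony-PCR amplified, MiSeq 2 × 250 sequenced and CDR-length filtered. A clone's polyreactivity label is that of its gate of origin.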

Row | Sequence | polyreactivity (PSR sort gate)
1 | QVQLVESGGGLVQAGGSLRLSCAASGSIFRGYAMGWYRQAPGKERELVAAINSSGGRTYYADSVKGRFTISRDNAKKTVYLQMNSLKPEDTAVYYCNARSKYPSYFSSMGYWGQGTQVTVSS | high polyreactivity
2 | QVQLVESGGGLVQAGGSLRLSCAASGSIFRGYAMGWYRQAPGKERELVATIDSSAGSTYYADSVKGRFTISRDNAKNTVYLQMNSLIPEDTAVYYCATDPYGYYYSGFDNWGQGTQVTVSS | low polyreactivity
3 | QVQLVESGGGLVQAGGSLRLSCAASGSIFRGYTMGWYRQAPGKERELVAAISRSGGSTYYADSVKGRFTISRDNAKNTVYLQMNSLKPEDTAVYYCNVVYFVTTSPGYDYWGQGTQVTVSS | high polyreactivity
4 | QVQLVESGGGLVQAGGSLRLSCAASGSIFRGYTMGWYRQAPGKERELVAAISTRGGSTYYADSVKGRFTISRDNAKNTVYLQMNSLKPEDTAVYYCNARSRGRASGYDYWGQGTQVTVSS | high polyreactivity
5 | QVQLVESGGGLVQAGGSLRLSCAASGSIFRINGMGCYRQAPGKERELVADITGGGSTYYADSVKGRFTISRDNAKNTVYLHMNSLKPEDTAVYYCAKDYYRSYGREDYWGQGTQVTVSS | low polyreactivity
6 | QVQLVESGGGLVQAGGSLRLSCAASGSIFRINVMGWYRQAPGKERELVAAISYSGGRTYYADSVKGRFTISRDNAKKTVYLQMNSLKPEDTAVYYCAATRSNFIYDYWGQGTQVTVSS | high polyreactivity
7 | QVQLVESGGGLVQAGGSLRLSCAASGSIFRIYAMGWYRQAPGKERELVAAISFSTGSRTYYADSVKGRFTISRDNAKNTVYLQMNSLKPEDTAVYYCAAEYHPRVLYPNWYDYWGQGTQVTVSS | low polyreactivity
8 | QVQLVESGGGLVQAGGSLRLSCAASGSIFRIYAMGWYRQAPGQESELVAAINAGGGRTYYADSVKGRFTISRDNAKNTVYLQMNSLKPEDTAVYYCAARHTEYRQESLYYWGQGTQVTVSS | low polyreactivity
9 | QVQLVESGGGLVQAGGSLRLSCAASGSIFRLNAMGWYRQARGKERELVARIDSSGSTNYTDSVKGRFTISRDNAKNTVYLQMNSLKPEDTAVYYCAAGLVLIVGMDSWGQGTQVTVSS | low polyreactivity
10 | QVQLVESGGGLVQAGGSLRLSCAASGSIFRLNTMGWYRQAPGKEMEFVAAISKGGTSTYYADSVKARFTISRDNAKNTVYLQMNSLKPEDTAVYYCAADYYSLYEATTDFDYWGQGTQVTVSS | high polyreactivity
11 | QVQLVESGGGLVQAGGSLRLSCAASGSIFRLYAMGWYRQAPGKEREFVARIRWRGGCTNYADSVKGRITISRDNAKNTVYLQMNTLKPEDTAVYYCAVKGAGGPKYDYWGHGTQVTVSS | high polyreactivity
12 | QVQLVESGGGLVQAGGSLRLSCAASGSIFRLYAMGWYRQAPGKERELVAAITWRSGSTYYADSVKGRFTISRDNAKNTVYLQMNSLKPEDTAVYYCAADSLYRLYNYWGQGTQVTVSS | high polyreactivity
13 | QVQLVESGGGLVQAGGSLRLSCAASGSIFRPYAMGWYRQAPGKERELVAAISYRGGSTYYADSVKGRFTISRDYAKNTVYLLMNRLKPEDTAVYYCAADSREEGDYWGQGTQVTVSS | low polyreactivity
14 | QVQLVESGGGLVQAGGSLRLSCAASGSIFRPYTMGWYRPAPGKERELVAGITSGGGTYYADSVKGRFTISRDNAKNTVYLQMNSLKPEDTAVYYCAADNWKTRSLVDYWGQGTEVTVSS | high polyreactivity
15 | QVQLVESGGGLVQAGGSLRLSCAASGSIFRRNAMGWYRQAPGKERELVAGIRGSGGSTYYADSVKGRFTISRDNAKNTVYLQMNSLKPEDTAVYYSAARRSYYHGSYDYWGQGTQVTVSS | high polyreactivity
16 | QVQLVESGGGLVQAGGSLRLSCAASGSIFRRYAKGWYRQAPGKERELVAAITNRGGTTYYADSVKGRFTISRDNAKNSVYLQMNSLKPEDTAVYYCNAYYRTKGGFRFGYWGQVTQVTVSS | high polyreactivity

Row | Sequence | polyreactivity (PSR sort gate)
17 | QVQLVESGGGLVQAGGSLRLSCAASGSIFRRYAMGWYRQAPGKERELVAAISIGGGSTYYADSVKGRFTISRDNAKITVYLQMNSLKPEDTAVYYCNAYWKDDFEDGPGRRGMDYWGQGTQVTVSS | low polyreactivity
18 | QVQLVESGGGLVQAGGSLRLSCAASGSIFRRYAMGWYRQAPGKERELVAAISWRGDSTYYADSVKGRFTISRDNAKNTVYLQMNSLKPEDTAVYYCNSLIGANPLCYAARYDYWGQGTQVTVSS | low polyreactivity
19 | QVQLVESGGGLVQAGGSLRLSCAASGSIFRRYTMGWYRQAPGKEREFVAVISRDGGSTYYADSVKGRFTISRDNAKNTVYLQMNSLKPEDTAVYYCAARLVRRYDYDYWGQGTQVTVSS | high polyreactivity
20 | QVQLVESGGGLVQAGGSLRLSCAASGSIFRSNDMGWYRKAPGKERELVARITSSVGSTYYADSVKGRFTISRDNAKNTVYLQMNSLKPEVTAVYYCAKRYYHYPYGYRDYDYWGQGTQVTVSS | low polyreactivity
21 | QVQLVESGGGLVQAGGSLRLSCAASGSIFRSYAMGWYRQAPGKERELVAAISSSGGRTYYADSVKGRFTISRDNAKNTVYLQMNSLKPEDTAVYYCAAYGGGGYKYDYWGQGTQVTVSS | low polyreactivity
22 | QVQLVESGGGLVQAGGSLRLSCAASGSIFRSYAMGWYRQAPGKERELVAGITRGGSTNYADSVKGRFTISRYNAKNTVYLQMNSLKPEDTAVYYCNADTVSLGHSLDDGDYWGQGTQVTVSS | low polyreactivity
23 | QVQLVESGGGLVQAGGSLRLSCAASGSIFRTNAMGWYRQAPGKERELVAAISQRGGSTYYADSVKGRFTISRDNAKNTVYLQMNSLKPEDTAVYYCAAPYTQKRGYDYWGQGTLVTVSS | high polyreactivity
24 | QVQLVESGGGLVQAGGSLRLSCAASGSIFRTNAMGWYRQAPGKERELVASISRRGGSTYYADSVKGRFTISRDNAKNTVYLQMNSLKPEDTAVYYCAAVGYYSNTLHPWWDMYYWGQGTQVTVSS | high polyreactivity
25 | QVQLVESGGGLVQAGGSLRLSCAASGSIFRTNTMGWYRQAPGKERELVARINRGGRTYYADSVKGRFTISRDNAKNTVYLQMNSLKPEDTAVYYCAAAPFFPHWYGYDYWGQGTHVTVSS | high polyreactivity
26 | QVQLVESGGGLVQAGGSLRLSCAASGSIFRTYVMGWYRQAPGKERELVAAITASGGRTYYADSVKGRFTISRDNAKNSVYLQMNSLKPEDTAVYYCAAVSRGRYADSFDHWGQGTQVTVSS | high polyreactivity
27 | QVQLVESGGGLVQAGGSLRLSCAASGSIFRVNAMGWYRQAPGKERELVAAITSGGTTTYYADSVKGRFTISLDNAKNTVYLQMNSLKPEDTAVYYCSKYPYPIYHTDGDDWGQGTQVTVSS | low polyreactivity
28 | QVQLVESGGGLVQAGGSLRLSCAASGSIFRVYAMGWYRQAPGKERELVARISRTGVSTYYADSVKGRFTISRDNAKNTVYLQMNSLKPEDTAVYYCAVLIPYSSRSYRSTWYGYWGQGTQVTVSS | high polyreactivity
29 | QVQLVESGGGLVQAGGSLRLSCAASGSIFRVYAMGWYRRAPGKERELVATITWNGGSTYYADSVKGRFTISRDNAKNTVYLQMNSLKPEDTAVYYCAKPTSWRRVLPMDYWGQGTQVTVSS | low polyreactivity
30 | QVQLVESGGGLVQAGGSLRLSCAASGSIFRWNAMGWNRQEPGKERELVAVINSSGGSTYYADSVKGRFTISRDNAKNTVYLQMNSLKPEDTAVYYCAKGYDTTLTYNYWGQGTQVTVSS | low polyreactivity
31 | QVQLVESGGGLVQAGGSLRLSCAASGSIFRWNAMGWYRQAPGKERELVAAITYSGGTTYYADSVKGRFTISRDNAKNTVYLQMNSLKPEDTAVYYCAATYYDYYRLYHLGYWGQGTQVTVSS | high polyreactivity
32 | QVQLVESGGGLVQAGGSLRLSCAASGSIFRWNSMGGYRQAPGKERELVASITSGGSTYYADSVKGRFTISRDNAKNTVYLQMNSLKPEDTAVYYCAAARYPGRKFDYWGQGTQVTVSS | high polyreactivity

Source: the nanobody polyreactivity screen of Harvey et al. (2022)
